Experiment [1] concerns the target H278N mutant mouse delta opioid receptor (mouse) (UniProt P32300). The experiment can be described thus: competition vs 3H-naltrindole, COS-7 membranes.
For experiment [2], the target named is rat µ opioid receptor (rat) (UniProt P33535). The experiment can be described thus: competition vs [3H]DAMGO, COS-7 membranes.
Experiment [3] has as its target mouse kappa opioid receptor (mORK1) (mouse) (UniProt P33534). Kind of experiment: competition vs [3H]U-69,593, COS-1 membranes.

A word on the Ki: it is a measure of affinity in units of concentration, obtained from inhibition or displacement. The substance D-Ala2-deltorphin II (peptide) gave a Ki in experiment [1] of 4 nM. This lies in the single-digit nanomolar range.

For dermorphin (peptide), the inhibitory constant (Ki) in experiment [2] was determined as 0.33 nM.

One may read the IC50 as the concentration at which inhibition is half-maximal. Low readings indicate greater potency in that assay, high ones weaker potency in that assay. In turn, “[D-Ala2, F5Phe4]Dynorphin (1-17)NH2 (from UniProt P01213 207-223) (peptide)” had an IC50 in experiment [3] of 0.2 nM.

Regarding PLO17 (peptide), the Ki in experiment [2] is 30 nM. This counts as double-digit nanomolar.

morphiceptin (peptide) gave a Ki in experiment [2] of 56 nM.

Regarding “[D-Ala2, F5Phe4]Dynorphin (1-13)NH2 (from UniProt P01213 207-219) (peptide)”, the IC50 in experiment [3] came out at 19 nM.

Values taken from patent US20030211537A1.
